This assay addresses H3.2–H4 tetramer (human) (UniProt Q71DI3). Briefly: SEC-MALS. For orientation: SEC sorts molecules by how far they enter the pores of the column.

Among the data in paper PMC4685956 are stoichiometry N (MCM2 HBD per H3–H4 tetramer) values, retold here.

“MCM2 HBD(43–160) (from UniProt P49736 43-160) (domain or fragment)” returned a stoichiometry N (MCM2 HBD per H3–H4 tetramer) of 2.
